Our source for the Kd values is US20060194276A1 (GOVERMMENT OF THE USA AS REPRESENTED BY THE SECRETARY OF …, published 2006).

For orientation: Kd means the constant that tells how readily two partners part at equilibrium.

The target of the assay is T1, human CD22 (human, UniProt P20273 20-847).
T1 construct: whole, on cells; Always presented on living CD22+ tumor cells (Raji for all numbers); also called CD22 antigen; target antigen
T1 sequence (looked up): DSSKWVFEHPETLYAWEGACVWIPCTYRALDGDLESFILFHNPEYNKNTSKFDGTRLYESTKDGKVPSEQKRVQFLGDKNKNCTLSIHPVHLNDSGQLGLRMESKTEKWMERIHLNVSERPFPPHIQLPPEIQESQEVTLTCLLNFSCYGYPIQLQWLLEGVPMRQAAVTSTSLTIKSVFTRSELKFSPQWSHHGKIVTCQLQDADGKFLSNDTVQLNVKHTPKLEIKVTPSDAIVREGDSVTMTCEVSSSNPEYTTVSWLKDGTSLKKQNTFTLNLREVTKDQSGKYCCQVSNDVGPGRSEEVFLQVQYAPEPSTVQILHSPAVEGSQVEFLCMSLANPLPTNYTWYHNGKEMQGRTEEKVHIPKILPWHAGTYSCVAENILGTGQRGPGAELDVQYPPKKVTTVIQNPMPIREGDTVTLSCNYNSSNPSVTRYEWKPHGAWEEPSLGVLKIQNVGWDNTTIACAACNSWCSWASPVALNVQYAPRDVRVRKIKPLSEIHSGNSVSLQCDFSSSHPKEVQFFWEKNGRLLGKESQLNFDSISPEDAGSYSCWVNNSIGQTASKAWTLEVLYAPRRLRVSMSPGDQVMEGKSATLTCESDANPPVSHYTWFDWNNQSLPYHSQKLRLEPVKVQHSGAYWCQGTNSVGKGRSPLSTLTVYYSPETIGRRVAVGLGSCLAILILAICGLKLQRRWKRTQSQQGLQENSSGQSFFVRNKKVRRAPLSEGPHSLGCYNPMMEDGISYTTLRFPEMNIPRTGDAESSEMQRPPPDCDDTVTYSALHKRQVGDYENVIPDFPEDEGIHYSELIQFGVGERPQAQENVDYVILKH
Briefly: flow cytometry on CD22+ Raji cells, equilibrium binding, non-linear regression. As to the method: Specific binding of the constructs was determined by flow cytometry using the human CD22⁺ B cell lines Raji, Ramos, Daudi and CA46. Human T cell lines Jurkat and HUT102 were used as negative controls. Cells (5×10⁵) were incubated with 100 μl of a sample containing either the scFv fragments, or control antibodies, in FACS buffer (PBS, 0.1% NaN₃, 2% FBS) for 45 min at 4° C. in round bottom 96-well microtiter plates. Cells were pelleted at 200 g at 4° C. for 5 min and washed twice with 200 μl FACS buffer. […] Background fluorescence was determined by using cells incubated with 9E10 antibody and FITC-labeled anti-mouse antibody under the same conditions. Stained cells were analyzed on a FACScan Flow Cytometer (BD Bioscience, San Jose, Calif.), and median fluorescence intensity (MFI) was calculated using the CellQuest™ software (BD Bioscience).
Affinity measurements were performed as previously described (Benedict et al., J Immunol Methods 201:223-231, 1997) with the following modifications: Varying concentrations of antibodies were incubated in triplicate with 5×10⁵ Raji cells at room temperature in FACS buffer for two hours. Bound antibodies were detected under the same conditions, as described above. After two final washing steps, cells were fixed in PBS containing 2% paraformaldehyde for 15 minutes at room temperature and analyzed by flow cytometry. […]

B1: murine monoclonal antibody RFB4 (antibody, V domains shown)
VH: EVQLVESGGGLVKPGGSLKLSCAASGFAFSIYDMSWVRQTPEKRLEWVAYISSGGGTTYYPDTVKGRFTISRDNAKNTLYLQMSSLKSEDTAMYYCARHSGYGSSYGVLFAYWGQGTLVTVSA
VL: DIQMTQTTSSLSASLGDRVTISCRASQDISNYLNWYQQKPDGTVKLLIYYTSILHSGVPSRFSGSGSGTDYSLTISNLEQEDFATYFCQQGNTLPWTFGGGTKLEIK
notes: also called mAb RFB4; murine mAb RFB4
The molecule B1 returned a dissociation constant (Kd) of 2 nM.
